Assay results taken from PMC4158700.
Each block holds one substance with its values, some of them ahead of it.

How the values were obtained:
[1] = biological target: factor XIa with Arg184 replaced with Gly (fXIa-Gly184) (human) (UniProt P03951); experiment: inhibition of chromogenic substrate
[2] = biological target: recombinant wild type factor XIa (fXIaWT) (human) (UniProt P03951); experiment: inhibition of chromogenic substrate
[3] = biological target: factor XIa with Arg184 replaced with Gly (fXIa-Gly184) (human) (UniProt P03951); experiment: numerical fitting of full progress curves of fIX cleavage
[4] = biological target: factor XIa with Ile183, Arg184 and Asp185 replaced with alanine (fXIa-Ala183-185) (human) (UniProt P03951); experiment: as above
[5] = biological target: factor XIa with Arg184 replaced with Gly (fXIa-Gly184) (human) (UniProt P03951)
[6] = biological target: factor XIa with Ile183, Arg184 and Asp185 replaced with alanine (fXIa-Ala183-185) (human) (UniProt P03951)
[7] = biological target: recombinant factor XI zymogen with Arg184 replaced with Gly (fXI-Gly184) (human); experiment: non-reducing SDS-PAGE
[8] = biological target: plasma fXIa with the active site irreversibly blocked by FPR-CMK (UniProt P03951); experiment: SPR
[9] = biological target: recombinant wild type factor XI zymogen (fXIWT) (human); experiment: non-reducing SDS-PAGE

Substance: factor IXaβ (fIXaβ), fIX cleaved at Arg145-Ala146 and Arg180-Val181 (enzyme)
Ki [1]: 190 nM
Ki [2]: 90 nM
Ki [3]: 500 nM
Ki [4]: 290 nM

Substance: factor IXα (fIXα), fIX cleaved at the Arg145-Ala146 bond (natural protein)
Km2 for cleavage after Arg180 (KinTek fit of progress curves) [5]: 0.2 µM
Km2 for cleavage after Arg180 (KinTek fit of progress curves) [6]: 3 µM
Ki1 (k-3/k3, fIXα released after the cleavage at Arg145) [3]: 0.4 µM
Ki1 (k-3/k3, fIXα released after the cleavage at Arg145) [4]: 6 µM

The next lines start with the values.

stoichiometry N [7]: 2
Substance: recombinant factor XI zymogen with Arg184 replaced with Gly (fXI-Gly184) (natural protein)

Kd [8]: 350 nM
Substance: recombinant wild type factor IX (fIXWT) (from UniProt P00740 47-461) (natural protein)

stoichiometry N [9]: 2
Substance: recombinant wild type factor XI zymogen (fXIWT) (natural protein)
